Test results from paper PMC10936626 (Autophagy, 2023).

Molecular target: GST-tagged SRC, bacterially purified (human, UniProt P12931-1 1-536)
Assay: pull-down

B1: Flag-tagged MEF2D protein purified from HEK293T cells (natural protein, human, UniProt Q14814-1 1-521, looked up)
chain: MGRKKIQIQRITDERNRQVTFTKRKFGLMKKAYELSVLCDCEIALIIFNHSNKLFQYASTDMDKVLLKYTEYNEPHESRTNADIIETLRKKGFNGCDSPEPDGEDSLEQSPLLEDKYRRASEELDGLFRRYGSTVPAPNFAMPVTVPVSNQSSLQFSNPSGSLVTPSLVTSSLTDPRLLSPQQPALQRNSVSPGLPQRPASAGAMLGGDLNSANGACPSPVGNGYVSARASPGLLPVANGNSLNKVIPAKSPPPPTHSTQLGAPSRKPDLRVITSQAGKGLMHHLTEDHLDLNNAQRLGVSQSTHSLTTPVVSVATPSLLSQGLPFSSMPTAYNTDYQLTSAELSSLPAFSSPGGLSLGNVTAWQQPQQPQQPQQPQPPQQQPPQPQQPQPQQPQQPQQPPQQQSHLVPVSLSNLIPGSPLPHVGAALTVTTHPHISIKSEPVSPSRERSPAPPPPAVFPAARPEPGDGLSSPAGGSYETGDRDDGRGDFGPTLGLLRPAPEPEAEGSAVKRMRLDTWTLK
**Q.** Does B1 bind?
**A.** Result: binds
